Laboratory results reported in patent US20220332795A1.

Molecular target: human serum albumin (human) (UniProt P02768)
Assay: primary solution ELISA screen

Sequence of human serum albumin (human) (P02768 25-609 limits assumed): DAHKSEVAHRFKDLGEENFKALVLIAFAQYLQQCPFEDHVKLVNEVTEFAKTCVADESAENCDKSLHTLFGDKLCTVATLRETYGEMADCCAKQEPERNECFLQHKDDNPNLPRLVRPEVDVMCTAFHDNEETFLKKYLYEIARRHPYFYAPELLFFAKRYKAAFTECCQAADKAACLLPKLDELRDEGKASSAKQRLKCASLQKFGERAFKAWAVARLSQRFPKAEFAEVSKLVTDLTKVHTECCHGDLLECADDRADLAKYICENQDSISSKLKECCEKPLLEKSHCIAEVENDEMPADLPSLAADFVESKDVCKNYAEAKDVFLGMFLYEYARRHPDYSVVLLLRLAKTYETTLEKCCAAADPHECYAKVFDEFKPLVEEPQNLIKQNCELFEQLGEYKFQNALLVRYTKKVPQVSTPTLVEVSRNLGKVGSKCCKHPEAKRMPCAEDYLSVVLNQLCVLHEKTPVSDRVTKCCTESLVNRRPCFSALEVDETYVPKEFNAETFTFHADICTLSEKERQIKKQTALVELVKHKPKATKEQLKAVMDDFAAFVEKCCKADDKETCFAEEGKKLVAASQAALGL

B1: SEQ ID NO 38 (designed binder, not shown: small tags and cut ends)
chain: MLPAPKNLVVSRVTEDSARLSWTAPDAAFDSFPILYLEHTVRSEAIVLTVPGSERSYDLTDLKPGTEYCVPIDGVKGGLRSRPLSAIFTT
Question: B1 was tested. Which RLU did it give?
Answer: The RLU was 8150 RLU.

B2: SEQ ID NO 54 (designed binder, not shown: small tags and cut ends)
chain: MLPAPKNLVVSRVTEDSARLSWTAPDAAFDSFAIAYGEHIVIGEAIVLTVPGSERSYDLTGLKPGTEYMVPIAGVKGGPISLPLSAIFTT
Question: How did the RLU turn out when B2 was run?
Answer: The RLU was 11700 RLU.

B3: SEQ ID NO 48 (designed binder, not shown: small tags and cut ends)
chain: MLPAPKNLVVSRVTEDSARLSWTAPDAAFDSFLIYYEEGYLEYYYSGEAIVLTVPGSERSYDLTGLKPGTEYYVGIVGVKGGGLSGPLSAISTT
Question: Which RLU does the source give for B3 here?
Answer: The RLU was 115000 RLU.

B4: SEQ ID NO 4 (designed binder, not shown: small tags and cut ends)
chain: MLPAPKNLVVSEVTEDSARLSWQGVARAFDSFLITYRDQIFAGEVIVLTVPGSERSYDLTGLKPGTEYPVWIQGVKGGSPSAPLSAESTT
Question: Which RLU does the source give for B4 here?
Answer: The RLU was 174000 RLU.

B5: SEQ ID NO 53 (designed binder, not shown: small tags and cut ends)
chain: MLPAPENLVVSEVTEDSARLSWQGVARAFDSFLITYREQIFAGEVIVLTVPGSERSYDLTGLKPGTEYPVWIQGVKGGSPSAPLSAESTT
Question: How did the RLU turn out when B5 was run?
Answer: The RLU was 32000 RLU.

B6: SEQ ID NO 41 (designed binder, not shown: small tags and cut ends)
chain: MLPAPKNLVVSRVTEDSARLSWQGVARAFDSFLITYREQIFAGEVIVLTVPGSERSYDLTGLKPGTEYPVWIQGVKGGHLSDPLSAIVTT
Question: For B6, which RLU is on record?
Answer: The RLU was 115000 RLU.

B7: SEQ ID NO 5 (designed binder, not shown: small tags and cut ends)
chain: MLPAPKNLVVSEVTEDSARLSWQGVARAFDSFLITYREQIFAGEVIVLTVPGSERSYDLTGLKPGTEYWVYIWGVKGGKPSFPLRAGFTT
Question: Which RLU does the source give for B7 here?
Answer: Its RLU is 45000 RLU.

B8: SEQ ID NO 40 (designed binder, not shown: small tags and cut ends)
chain: MLPAPKNLVVSRVTEDSARLSWTAPDAAFDSFTIDYWENRCPGEAIVLTVPGSERSYDLTGLKPGTEYCVWISGVKGGYSSWPLSAIFTT
Question: With B8 as the binder, how does the RLU read?
Answer: The RLU was 13600 RLU.

B9: SEQ ID NO 37 (designed binder, not shown: small tags and cut ends)
chain: MLPAPKNLVVSRVTEDSARLSWTTPDAAFDSFPIYYWEVTITGEAIYLSVPGSERSYDLTGLKPGTEYPVDIPGVKGGAASPPLSAIFTT
Question: B9 was tested. Which RLU did it give?
Answer: Its RLU is 28600 RLU.

B10: SEQ ID NO 43 (designed binder, not shown: small tags and cut ends)
chain: MLPAPKNLVVSRVTEDSARLSWTAPDAAFDSFMIVYYEYTRFGEAIVLTVPGSERSYDLTGLKPGTEYTVPIDGVKGGGRSSPLSAIFTT
Question: With B10 as the binder, how does the RLU read?
Answer: Its RLU is 21500 RLU.

B11: SEQ ID NO 47 (designed binder, not shown: small tags and cut ends)
chain: MLPAPKNLVVSRVTEDSARLSWTAPDAAFDSFGIVYLEMMVTGEAIVLTVPGSERSYDLTGLKPGTEYDVPILGVKGGTRSVPLSAIFTT
Question: For B11, which RLU is on record?
Answer: Its RLU is 20400 RLU.

B12: SEQ ID NO 42 (designed binder, not shown: small tags and cut ends)
chain: MLPAPKNLVVSRVTEDSARLSWTAPDAAFDSFLIPYAETSPSGEAIVLTVPGSERSYDLTGLKPGTEYSVLIHGVKGGDYSEPLSAIFTT
Question: How did the RLU turn out when B12 was run?
Answer: The RLU was 1000 RLU.

B13: SEQ ID NO 44 (designed binder, not shown: small tags and cut ends)
chain: MLPAPKNLVVSRVTEDSARLSWTAPDAAFDSFFIPYAEPSPTGEAIVLTVPGSERSYDLTGLKPGTEYSVLIHGVKGGHLSDPLSAIVTT
Question: B13 was tested. Which RLU did it give?
Answer: The RLU was 56600 RLU.

B14: SEQ ID NO 46 (designed binder, not shown: small tags and cut ends)
chain: MLPAPKNLVVSRVTEDSARLSWTAPDAAFDSFIIPYAEVRPDGEAIVLTVPGSERSYDLTGLKPGTEYSVLIHGVKGGKLSLPLSAIFTT
Question: How did the RLU turn out when B14 was run?
Answer: The RLU was 8150 RLU.

B15: SEQ ID NO 50 (designed binder, not shown: small tags and cut ends)
chain: MSLPAPKNLVVSRVTEDSARLSWTAPDAAFDSFTIHYREFQLSGEAIVLTVPGSERSYDLTGLKPGTEYDVPIEGVKGGPGSRPLSAIFTT
Question: B15 was tested. Which RLU did it give?
Answer: Its RLU is 16000 RLU.

B16: SEQ ID NO 39 (designed binder, not shown: small tags and cut ends)
chain: MLPAPKNLVVSRVTEDSARLSWTAPDAAFDSFPIPYTEPPDPGEAIVLTVPGSERSYDLTGLKPGTEYLVTILGVKGGSMSVPLSAIFTT
Question: B16 was tested. Which RLU did it give?
Answer: Its RLU is 51100 RLU.
